Assays:
[1] = molecular target: T1, Human CD3ε stalk-Fc(knob)-Avi/CD3δ stalk-Fc(hole) (human); experiment: SPR, TCB captured by anti-PG antibody, antigen as analyte, 25°C
T1 construct: Heterodimer of CD3 delta and CD3 epsilon ectodomains fused to human Fc with knob-into-hole; also called human CD3ε/δ; CD3 antigen
Excerpt: (§1) For affinity measurements, TCB molecules were captured on a C1 sensorchip (GE Healthcare) surface with immobilized anti-Fc(P329G) IgG (an antibody that specifically binds human IgG₁ Fc(P329G); “anti-PG antibody”—see WO 2017/072210, incorporated herein by reference). The experimental setup is schematically depicted in FIG. 3. Capture IgG was coupled to the sensorchip surface by direct immobilization of around 400 resonance units (RU) using the standard amine coupling kit (GE Healthcare Life Sciences).
(§2) To analyze the interaction to CD3, TCB molecules were captured for 80 s at 25 nM with a flow rate of 10 μl/min. […] The dissociation was monitored for 800 s.
(§3) Kinetic constants were derived using the Biacore T200 Evaluation Software (GE Healthcare Life Sciences), to fit rate equations for 1:1 Langmuir binding by numerical integration. The half-life (t_{1/2}) of the interaction was calculated using the formula t_{1/2}=ln2/koff.

[2] = molecular target: T1, Human CD3ε stalk-Fc(knob)-Avi/CD3δ …; experiment: SPR on immobilized human CD3ε/δ after stress, relative to sample kept at -80°C pH 6
Description: In order to assess the effect of the deamidation site removal and its effect on the stability of the antibodies, the optimized anti-CD3 antibodies (in TCB format) were incubated for 14 days at 37° C., pH 7.4 and at 40° C., pH 6 and further analyzed by SPR for their binding capability to human CD3ε/δ. Samples stored at −80° C. pH 6 were used as reference. The reference samples and the samples stressed at 40° C. were in 20 mM His, 140 mM NaCl, pH 6.0, and the samples stressed at 37° C. in PBS, pH 7.4, all at a concentration of 1.0 mg/ml. After the stress period (14 days) samples in PBS were dialyzed back to 20 mM His, 140 mM NaCl, pH 6.0 for further analysis.
All SPR experiments were performed on a Biacore T200 instrument (GE Healthcare) at 25° C. with HBS-P+ (10 mM HEPES, 150 mM NaCl pH 7.4, 0.05% Surfactant P20) as running and dilution buffer. Biotinylated human CD3ε/δ (see Example 3, SEQ ID NOs 41 and 42) as well as biotinylated anti-huIgG (Capture Select, Thermo Scientific, #7103262100) were immobilized on a Series S Sensor Chip SA (GE Healthcare, #29104992), resulting in surface densities of at least 1000 resonance units (RU). Anti-CD3 antibodies with a concentration of 2 μg/ml were injected for 30 s at a flow rate of 5 μl/min, and dissociation was monitored for 120 s. The surface was regenerated by injecting 10 mM glycine pH 1.5 for 60 s. Bulk refractive index differences were corrected by subtracting blank injections and by subtracting the response obtained from a blank control flow cell. For evaluation, the binding response 5 seconds after injection end was taken. To normalize the binding signal, the CD3 binding was divided by the anti-huIgG response (the signal (RU) obtained upon capture of the CD3 antibody on the immobilized anti-huIgG antibody). The relative binding activity was calculated by referencing each temperature stressed sample to the corresponding, non-stressed sample.

[3] = molecular target: T2, Cynomolgus CD3ε stalk-Fc(knob)-Avi/CD3δ stalk-Fc(hole) (cynomolgus); experiment: SPR, TCB captured by anti-PG antibody, antigen as analyte, 25°C
T2 construct: also called cynomolgus CD3ε/δ
Excerpt: as §1, §2, §3

Row | Binder | Kd [1] [nM] | koff [1] [s⁻¹] | kon [1] [M⁻¹ s⁻¹] | t1/2 [1] [min] | binding activity [%] after 2 weeks at pH 6.0/40°C [2] [%] | binding activity [%] after 2 weeks at pH 7.4/37°C [2] [%] | Kd [3] [nM] | koff [3] [s⁻¹] | kon [3] [M⁻¹ s⁻¹] | t1/2 [3] [min]
1 | TYRP1-TCB with the parental CD3 binder CD3orig (bispecific antibody, human IgG1, kappa, L234A L235A, Same 2+1 format as m1; also called CD3orig in TCB format) heavy 1: not shown heavy 2: QVQLVQSGAEVKKPGASVKVSCKASGFNIKDYFLHWVRQAPGQGLEWMGWINPDNGNTVYAQKFQGRVTMTADTSTSTVYMELSSLRSEDTAVYYCTRRDYTYEKAALDYWGQGTLVTVSSASTKGPSVFPLAPSSKSTSGGTAALGCLVEDYFPEPVTVSWNSGALTSGVHTFPAVLQSSGLYSLSSVVTVPSSSLGTQTYICNVNHKPSNTKVDEKVEPKSCDKTHTCPPCPAPEAAGGPSVFLFPPKPKDTLMISRTPEVTCVVVDVSHEDPEVKFNWYVDGVEVHNAKTKPREEQYNSTYRVVSVLTVLHQDWLNGKEYKCKVSNKALGAPIEKTISKAKGQPREPQVCTLPPSRDELTKNQVSLSCAVKGFYPSDIAVEWESNGQPENNYKTTPPVLDSDGSFFLVSKLTVDKSRWQQGNVFSCSVMHEALHNHYTQKSLSLSP light 1: DIQMTQSPSSLSASVGDRVTITCRASGNIYNYLAWYQQKPGKVPKLLIYDAKTLADGVPSRFSGSGSGTDFTLTISSLQPEDVATYYCQHFWSLPFTFGQGTKLEIKRTVAAPSVFIFPPSDRKLKSGTASVVCLLNNFYPREAKVQWKVDNALQSGNSQESVTEQDSKDSTYSLSSTLTLSKADYEKHKVYACEVTHQGLSSPVTKSFNRGEC light 2: EVQLLESGGGLVQPGGSLRLSCAASGFTFSTYAMNWVRQAPGKGLEWVSRIRSKYNNYATYYADSVKGRFTISRDDSKNTLYLQMNSLRAEDTAVYYCVRHGNFGNSYVSWFAYWGQGTLVTVSSASVAAPSVFIFPPSDEQLKSGTASVVCLLNNFYPREAKVQWKVDNALQSGNSQESVTEQDSKDSTYSLSSTLTLSKADYEKHKVYACEVTHQGLSSPVTKSFNRGEC | 6.54 | 0.00338 | 517000 | 3.42 | 95 | 65 | – | – | – | –
2 | TYRP1-TCB with anti-CD3 antibody clone P021.045 (bispecific antibody, human IgG1, kappa, L234A L235A, human IgG1 Fc, knob-into-hole, P329G L234A L235A; also called P021.045 in TCB format) heavy 1: not shown heavy 2: QVQLVQSGAEVKKPGASVKVSCKASGFNIKDYFLHWVRQAPGQGLEWMGWINPDNGNTVYAQKFQGRVTMTADTSTSTVYMELSSLRSEDTAVYYCTRRDYTYEKAALDYWGQGTLVTVSSASTKGPSVFPLAPSSKSTSGGTAALGCLVEDYFPEPVTVSWNSGALTSGVHTFPAVLQSSGLYSLSSVVTVPSSSLGTQTYICNVNHKPSNTKVDEKVEPKSCDKTHTCPPCPAPEAAGGPSVFLFPPKPKDTLMISRTPEVTCVVVDVSHEDPEVKFNWYVDGVEVHNAKTKPREEQYNSTYRVVSVLTVLHQDWLNGKEYKCKVSNKALGAPIEKTISKAKGQPREPQVCTLPPSRDELTKNQVSLSCAVKGFYPSDIAVEWESNGQPENNYKTTPPVLDSDGSFFLVSKLTVDKSRWQQGNVFSCSVMHEALHNHYTQKSLSLSP light 1: DIQMTQSPSSLSASVGDRVTITCRASGNIYNYLAWYQQKPGKVPKLLIYDAKTLADGVPSRFSGSGSGTDFTLTISSLQPEDVATYYCQHFWSLPFTFGQGTKLEIKRTVAAPSVFIFPPSDRKLKSGTASVVCLLNNFYPREAKVQWKVDNALQSGNSQESVTEQDSKDSTYSLSSTLTLSKADYEKHKVYACEVTHQGLSSPVTKSFNRGEC light 2: EVQLLESGGGLVQPGGSLRLSCAASGFTFSSYAMNWVRQAPGKGLEWVSRIRSKYNNYATYYADSVKGRFTISRDDSKNTLYLQMNSLRAEDTAVYYCVRASNFPSSYVSYFAYWGQGTLVTVSSASVAAPSVFIFPPSDEQLKSGTASVVCLLNNFYPREAKVQWKVDNALQSGNSQESVTEQDSKDSTYSLSSTLTLSKADYEKHKVYACEVTHQGLSSPVTKSFNRGEC | 0.43 | 0.00133 | 3.1e+06 | 8.69 | 99 | 95 | 0.2 | 0.000967 | 4.88e+06 | 11.9
3 | TYRP1-TCB with anti-CD3 antibody clone P035.064 (bispecific antibody, human IgG1, kappa, L234A L235A, human IgG1 Fc, knob-into-hole, P329G L234A L235A; also called P035.064 in TCB format) heavy 1: not shown heavy 2: QVQLVQSGAEVKKPGASVKVSCKASGFNIKDYFLHWVRQAPGQGLEWMGWINPDNGNTVYAQKFQGRVTMTADTSTSTVYMELSSLRSEDTAVYYCTRRDYTYEKAALDYWGQGTLVTVSSASTKGPSVFPLAPSSKSTSGGTAALGCLVEDYFPEPVTVSWNSGALTSGVHTFPAVLQSSGLYSLSSVVTVPSSSLGTQTYICNVNHKPSNTKVDEKVEPKSCDKTHTCPPCPAPEAAGGPSVFLFPPKPKDTLMISRTPEVTCVVVDVSHEDPEVKFNWYVDGVEVHNAKTKPREEQYNSTYRVVSVLTVLHQDWLNGKEYKCKVSNKALGAPIEKTISKAKGQPREPQVCTLPPSRDELTKNQVSLSCAVKGFYPSDIAVEWESNGQPENNYKTTPPVLDSDGSFFLVSKLTVDKSRWQQGNVFSCSVMHEALHNHYTQKSLSLSP light 1: DIQMTQSPSSLSASVGDRVTITCRASGNIYNYLAWYQQKPGKVPKLLIYDAKTLADGVPSRFSGSGSGTDFTLTISSLQPEDVATYYCQHFWSLPFTFGQGTKLEIKRTVAAPSVFIFPPSDRKLKSGTASVVCLLNNFYPREAKVQWKVDNALQSGNSQESVTEQDSKDSTYSLSSTLTLSKADYEKHKVYACEVTHQGLSSPVTKSFNRGEC light 2: EVQLLESGGGLVQPGGSLRLSCAASGFDFDNYAMNWVRQAPGKGLEWVSRIRSKHNGYATYYADSVKGRFTISRDDSKNTLYLQMNSLRAEDTAVYYCVRASNFPSSYVSYFGYWGQGTLVTVSSASVAAPSVFIFPPSDEQLKSGTASVVCLLNNFYPREAKVQWKVDNALQSGNSQESVTEQDSKDSTYSLSSTLTLSKADYEKHKVYACEVTHQGLSSPVTKSFNRGEC | 0.63 | 0.00115 | 1.83e+06 | 10 | 97 | 96 | 0.38 | 0.000921 | 2.44e+06 | 12.5
4 | TYRP1-TCB with anti-CD3 antibody clone P004.042 (bispecific antibody, human IgG1, kappa, L234A L235A, human IgG1 Fc, knob-into-hole, P329G L234A L235A; also called P004.042 in TCB format) heavy 1: not shown heavy 2: QVQLVQSGAEVKKPGASVKVSCKASGFNIKDYFLHWVRQAPGQGLEWMGWINPDNGNTVYAQKFQGRVTMTADTSTSTVYMELSSLRSEDTAVYYCTRRDYTYEKAALDYWGQGTLVTVSSASTKGPSVFPLAPSSKSTSGGTAALGCLVEDYFPEPVTVSWNSGALTSGVHTFPAVLQSSGLYSLSSVVTVPSSSLGTQTYICNVNHKPSNTKVDEKVEPKSCDKTHTCPPCPAPEAAGGPSVFLFPPKPKDTLMISRTPEVTCVVVDVSHEDPEVKFNWYVDGVEVHNAKTKPREEQYNSTYRVVSVLTVLHQDWLNGKEYKCKVSNKALGAPIEKTISKAKGQPREPQVCTLPPSRDELTKNQVSLSCAVKGFYPSDIAVEWESNGQPENNYKTTPPVLDSDGSFFLVSKLTVDKSRWQQGNVFSCSVMHEALHNHYTQKSLSLSP light 1: DIQMTQSPSSLSASVGDRVTITCRASGNIYNYLAWYQQKPGKVPKLLIYDAKTLADGVPSRFSGSGSGTDFTLTISSLQPEDVATYYCQHFWSLPFTFGQGTKLEIKRTVAAPSVFIFPPSDRKLKSGTASVVCLLNNFYPREAKVQWKVDNALQSGNSQESVTEQDSKDSTYSLSSTLTLSKADYEKHKVYACEVTHQGLSSPVTKSFNRGEC light 2: EVQLLESGGGLVQPGGSLRLSCAASGFQFDNYAMNWVRQAPGKGLEWVSRIRTKYNEYATYYADSVKGRFTISRDDSKNTLYLQMNSLRAEDTAVYYCVRASNFPQSYVSYFGYWGQGTLVTVSSASVAAPSVFIFPPSDEQLKSGTASVVCLLNNFYPREAKVQWKVDNALQSGNSQESVTEQDSKDSTYSLSSTLTLSKADYEKHKVYACEVTHQGLSSPVTKSFNRGEC | 1.54 | 0.00295 | 1.92e+06 | 3.92 | 98 | 98 | 0.71 | 0.00272 | 3.85e+06 | 4.25
